Measured values from the Immune Epitope Database (IEDB).

How the values were obtained:
HLA-A*02:02 = experiment: IEDB peptide-MHC binding, cellular MHC/competitive/fluorescence; ≥ and ≤ were set here for values at or beyond the usual limits of such assays
HLA-A*02:06 = experiment: as above
HLA-A*02:01 [1] = experiment: IEDB peptide-MHC binding, purified MHC/competitive/radioactivity; ≥ and ≤ were set here for values at or beyond the usual limits of such assays; settings: source organism: Vaccinia virus WR
HLA-A*02:03 = experiment: as above
HLA-A*68:02 [2] = experiment: as above
HLA-A*02:01 [3] = experiment: IEDB peptide-MHC binding, cellular MHC/competitive/fluorescence; ≥ and ≤ were set here for values at or beyond the usual limits of such assays
HLA-A*68:02 [4] = experiment: as above
[5] = source organism: Vaccinia virus WR
[6] = source organism: Influenza A virus

Row | Sequence | IC50 (HLA-A*02:02; [5]) [µM] | IC50 (HLA-A*02:06; [5]) [µM] | IC50 (HLA-A*02:01 [1]) [µM] | IC50 (HLA-A*02:03; [5]) [µM] | IC50 (HLA-A*68:02 [2]; [5]) [µM] | IC50 (HLA-A*02:01 [3]; [5]) [µM] | IC50 (HLA-A*68:02 [4]; [5]) [µM] | IC50 (HLA-A*02:01 [3]; [6]) [µM] | IC50 (HLA-A*02:02; [6]) [µM] | IC50 (HLA-A*02:06; [6]) [µM] | IC50 (HLA-A*68:02 [4]; [6]) [µM] | IC50 (HLA-A*02:03; [6]) [µM] | IC50 (HLA-A*68:02 [2]; [6]) [µM]
1 | CIVAAVIIM | 14.3 | 32.7 | 1.57 | 1.42 | 4.44 |  |  |  |  |  |  |  | 
2 | TVEFDRDKVV | 16.2 | 30.8 |  | 1.59 | 2.63 | 30.9 |  |  |  |  |  |  | 
3 | SMTSDSKSI | 8.35 | 56.1 |  | 2.3 |  | 34.8 | 8.09 |  |  |  |  |  | 
4 | KLYIALCKVT | 7.11 | 6.36 |  | 0.625 |  |  | 18.6 |  |  |  |  |  | 
5 | ELTSNCTRTT | 14.6 | 5.72 |  | 1.47 |  | 15.2 | 5.04 |  |  |  |  |  | 
6 | EVGTNFGTI | 5.76 | 19.9 |  | 1.94 | 0.069 | 20.1 |  |  |  |  |  |  | 
7 | NTKSDNIINI | 30.8 | ≥ 70 |  | 1.08 | 0.101 | ≥ 70 |  |  |  |  |  |  | 
8 | RLLKNMKQCT | 46.8 | 11.9 |  | 3.14 |  | 9.76 | ≥ 70 |  |  |  |  |  | 
9 | LMLHNPTSET | 39.3 | 11.1 |  | 4.48 |  | 8.92 | ≥ 70 |  |  |  |  |  | 
10 | LTKDRKMLEL | 7.7 | 20.8 | 3.43 | 0.133 | 4.84 |  |  |  |  |  |  |  | 
11 | TLNTMTKDA |  |  |  |  |  |  |  | 10.2 | 14.7 | ≥ 70 | ≥ 70 | 0.581 | 
12 | FVKKMLPKII | 11.1 | 6.71 |  | 1.14 |  | 32.7 | 14.1 |  |  |  |  |  | 
13 | GIIITVGML | 8.67 | 18.4 |  | 0.349 |  | 6.56 | 19.6 |  |  |  |  |  | 
14 | DAKRNSKSLV | 13.3 | 52.1 |  | 2.87 |  | 30.3 | 12.6 |  |  |  |  |  | 
15 | QVKDNIISRT | 17.8 | 34.3 |  | 0.421 |  | 40.9 | 24.2 |  |  |  |  |  | 
16 | EVMPEKRNVV | 20.2 | 12.1 |  | 2.62 | 0.107 | 44.3 |  |  |  |  |  |  | 
17 | AVTLNRIKI | 10.8 | 7.61 | 1.15 | 3.34 | 4.95 |  |  |  |  |  |  |  | 

Row | Sequence | IC50 (HLA-A*02:02; [5]) [µM] | IC50 (HLA-A*02:06; [5]) [µM] | IC50 (HLA-A*02:01 [1]) [µM] | IC50 (HLA-A*02:03; [5]) [µM] | IC50 (HLA-A*68:02 [2]; [5]) [µM] | IC50 (HLA-A*02:01 [3]; [5]) [µM] | IC50 (HLA-A*68:02 [4]; [5]) [µM] | IC50 (HLA-A*02:01 [3]; [6]) [µM] | IC50 (HLA-A*02:02; [6]) [µM] | IC50 (HLA-A*02:06; [6]) [µM] | IC50 (HLA-A*68:02 [4]; [6]) [µM] | IC50 (HLA-A*02:03; [6]) [µM] | IC50 (HLA-A*68:02 [2]; [6]) [µM]
18 | RAMAWTVV |  |  |  |  |  |  |  | 7.6 | 8.18 | 7.78 | ≥ 70 | 2.42 | 
19 | GIRCVSNLDI | 20.1 | 33 |  | 3.87 |  | ≥ 70 | ≥ 70 |  |  |  |  |  | 
20 | TLNRNQPAA |  |  |  |  |  |  |  | 15.2 | 11.4 | ≥ 70 | ≥ 70 | 0.583 | 
21 | HANNSTDTV |  |  |  |  |  |  |  | 24 | 8.32 | 55 |  | 4.32 | 0.168
22 | NLERETGLSA | 17.6 | 15 |  | 1.66 |  | 17.5 | 31.3 |  |  |  |  |  | 
23 | MISTYPGNT | 5.49 | 25.7 |  | 0.229 |  | 22.1 | 14.7 |  |  |  |  |  | 
24 | NTSQRGIL |  |  |  |  |  |  |  | 6.68 | 5.1 | ≥ 70 | ≥ 70 | 2.79 | 
25 | DIRDKYMEL | 24.3 | 14.6 |  | 3.86 |  | 10.3 | 14.7 |  |  |  |  |  | 
26 | SLETVKMGA | 11.2 | 23.4 |  | 0.547 |  | 26.1 | ≥ 70 |  |  |  |  |  | 
27 | AMHDKKIDI | 17.2 | 42 |  | 1.52 |  | 8.85 | 8 |  |  |  |  |  | 
28 | AAGAAVKGV |  |  |  |  |  |  |  | 56.8 | ≥ 70 | 25.5 | 26 | 2.3 | 
29 | EIKAEMQLKI | 16.9 | 14.3 |  | 4.76 |  | 27.5 | 5.12 |  |  |  |  |  | 
30 | NALLKHRFEII |  |  |  |  |  |  |  | 22.7 | 11.2 | 5.36 | 12.4 | 4.1 | 
31 | EVLMSPCRM | 6.83 | 11.8 |  | 0.651 | 1.52 | 27.9 |  |  |  |  |  |  | 
32 | DINVIGLIV | 9.8 | 5.53 | 0.387 | 4.04 | 2.27 |  |  |  |  |  |  |  | 
33 | FIVYGRSNA | 6.09 | 8.75 |  | 0.37 |  | 16.9 | 5.26 |  |  |  |  |  | 
34 | SVKYYGRST | 6.79 | 19.5 |  | 1.16 |  | 25.9 | 30.7 |  |  |  |  |  | 
